# Results reported in publication PMC12162814.
# B1: 3AT DNA (dsDNA)
# DNA 1: CGCATATATGCG
# DNA 2: CGCATATATGCG
# Tests used:
# [1] = target: T1, H-NSctd WT (Salmonella enterica serovar Typhimurium, UniProt P0A1S2 85-137); experiment: NMR titration
# [2] = target: T1, H-NSctd WT; experiment: ITC
# [3] = target: H-NSctd T115A (Salmonella enterica serovar Typhimurium, UniProt P0A1S2 85-137, T115A); experiment: NMR titration
# [4] = target: T1, H-NSctd WT; experiment: NMR titration; remark: listed apart in the source
# [5] = target: H-NSctd K107A (Salmonella enterica serovar Typhimurium, UniProt P0A1S2 85-137, K107A); experiment: NMR titration
binder,measurement,setting,value
B1,Kd,[1],6.3 ± 0.6 µM
same,Kd,[2],7.6 ± 0.5 µM
same,Kd,[3],4.1 ± 1.2 µM
same,Kd,[4],1.5 ± 0.5 µM
same,Kd,[5],5.3 ± 1.6 µM
